Results published in the DeepSol protein solubility set.

Experiment: soluble on expression in E. coli; label from the status in PepcDB or PDB records

Row | Sequence | soluble on expression in E. coli
1 | STRHPENYQWENWSLENVATILAHRFPNSYIWVIKCSRMHLHKFSCYDNFVKSNMFGAPEHNTDFGAFKHLYMLLVNAFNLSQNSLSKKSLNVWNKDSIASNCRSSPSHTTNGCQGEKVRTCEKSDESAMSFYPPSLNDASFTLIGFSKGCVVLNQLLFELKEAKKDKNIDAFIKSIRTMYWLDGGHSGGSNTWVTYPEVLKEFAQTGIIVHTHVTPYQVRDPMRSWIGKEHKKFVQILGDLGMQVTSQIHFTKEAPSIENHFRVHEVF | soluble
2 | SVKRLFKVRSDLDFAEQLWCKMSSSVISYQDLVKCFTLIIQSLQRGDIQPWLHSGSNSLLSKLIHQSYHGTMDTVSLSGTIPVQMLLEIGLDKLKKDYISFFIGQELASLNHLEYFIAPSVDIQEQVYRVQKLHHILEILVSCMPFIKSQHELLFSLTQICIKYYKQNPLDEQHIFQLPVRPTAVKNLYQSEKPQKWRVEIYSGQKKIKTVWQLSDSSPIDHLNFHKPDFSELTLNGSLEERIFFTNMVTCSQVHFK | soluble
3 | SVRVMQLTLGNSTITTQEAANSVVAYGRWPEYIKDSEANPVDQPTEPDVAACRFYTLDTVTWRKESRGWWWKLPDALKDMGLFGQNMFYHYLGRAGYTVHVQCNASKFHQGALGVFAVPEMCLAGDSTTHMFTKYENANPGEKGGEFKGSFTLDTNATNPARNFCPVDYLFGSGVLAGNAFVYPHQIINLRTNNCATLVLPYVNSLSIDSMTKHNNWGIAILPLAPLDFATESSTEIPITLTIAPMCCEFNGLRNITVPRTQ | soluble
4 | SWQSYVDDHLMCDVEGNHLTAAAILGQDGSVWAQSAKFPQLKPQEIDGIKKDFEEPGFLAPTGLFLGGEKYMVIQGEQGAVIRGKKGPGGVTIKKTNQALVFGFYDEPMTGGQCNLVVERLGDYLIESEL | soluble
5 | SYPYILISGHKHPRLSMHRGAKKRKGEYFGPYPDSGAVRETLHLLQKIFPVRQCEDTVYSNRTRPCLMYQIGRCAGPCVSSIISDEEYAELVGFVRLFLQGKDQQVLKQLIEKMEVASQQLRFEDAAKFRDQIQAIRRVQEQQYVSEDSMDDMDVLGFAQENGIACIHILMIRQGKVLGSRSHFPKIPQNTSQQEVFDSFLTQYYLSHNEARTIPSRIILNQELADDLEPIQKALSEVAGRKVHFHTSPTGARGRYLKLSNTNALTAITTKINHKMTINQRFKALRETLGMESIMRMECFDISHTMGESTIASCVVFNNEGPVKQEYRRYNITGITGGDDYAAMGQALERRYSKQLDVEKIPDIIFIDGGKGQLNRAHEIIAQYWGDWPKRPIMIGIAKGVTRKPGLETLITVDGEEFNLPSDAPALHLIQHIRDESHNHAIAGHRAKRGKTRR | not soluble
6 | TDLVAVWDVALSDGVHKIEFEHGTTSGKRVVYVDGKEEIRKEWMFKLVGKETFYVGAAKTKATINIDAISGFAYEYTLEINGKSLKKYMEDRSKTTNTWVLHMDGENFRIVLEKDAMDVWCNGKKLETAGEFVDDGTETHFSIGNHDCYIKAVSSGKRKEGIIHTLIVD | not soluble
7 | TEELHKIEDIIRIFNDCFSQEYNTRLAKGGDYPIYLPAYRAENNTPSDRPYHVILFAHGYYSSALHEIAHWLVAGTARRQLEDFGYWYEPDGRSAEQQREFETVEVKPQAIEWILATAADFRYFASADNLSGNAGDNSAFKQAVYQQVKIYANRGYLPKRAEKLRQALAKFYGTTDQINLANFEIT | not soluble
8 | TEVELAYLVSESQLIGITGSNGKTTTTTMIAEVLNAGGQRGLLAGNIGFPASEVVQAANDKDTLVMELSSFQLMGVKEFRPHIAVITNLMPTHLDYHGSFEDYVAAKWNIQNQMSSSDFLVLNFNQGISKELAKTTKATIVPFSTTEKVDGAYVQDKQLFYKGENIMSVDDIGVPGSHNVENALATIAVAKLAGISNQVIRETLSNFGG | not soluble
9 | TGASNYYIIFTSGTTGVPKGVQISHDNLVSFTNWLLQDFGLEEGARFLAQAPYSFDLSVMSIYPALALGGSLTPLPNEIINDFKQLFTRLPQLTIDVWVSTPSFIELCLMEPSFDGEHLPALRTFLFCGEELPKPTAEKLAARFPTAHIYNTYGPTEATVAISAIEITQEVLKSVQ | not soluble
10 | THMRCRVYYEDTDSEGVVYHANYLKYCERARSEFFFKQNVLPENEEGVFVIRSIKADFFTPASLGQVLEIRTQIKELRKVFVVLFQEIYCIQNASLEPMKPFKVFASEIKFGFVNRSTYSPIAIPKLFKELLNAI | soluble
11 | THRAFNPKTLYIDASTSALKYSQGSTVYFRLPLDDIVRVQIQKESFSSQSLMIYTVNDSYQVPNSDNFDSLQLKYLMKKLEKRLDDQRR | not soluble
12 | TINPVMQQVAYDQLTAKGYTGSVVAIEPSTGRILTMVSTPSYDPNSLASHDGTETTQAWEALNADPEKPLINRAVSQTYPPGSTFKVVVTAAALAAGTTPDTQLTAAPQITLPGTSTTLENYNGSTCGGAPTASLREAFARSCNTAFVELGVKTGTDAVSDQSSALGIGGQMPGVPFPVADSTIGSIPDDAALGQSSIGQRDVALTPLQNAMIAATVANGGVRMQPQLVSELQGPDLSNLATTNPVSEGQAMSSQVAATLTDLMIGSENNTSGEGKIPGVQIASKTGTAEHGTDPRNTPPHAWYIGFAPAQNPTVAIAVIVEDGGDRALAATGGSVAAPIGRAVIAAGLQGG | not soluble
13 | TKDFSWRTSLNFAYNKNKIVDLQYKENLTSRGLSLAGMSGDYSNLWIIGQPIDINYNLMTLGVWQLDEAEEAAKYGCKPGQYKPLDLNEDGVIDDKDRVIDGKRTPDWTGGMTNTFTYKEFDLSFQAAFQAGARARNQFYVSYALENNNLNFNNLRKDYWTPENPTNASAQPSNMGTYRSKAGSWGNAKSEMSHTMFSSNFLKISYITLGYTFKPSVLEKMKLGNLRLYATVQNPFIFCAKDVVDPEQLNVSINTSDAMTRNVIFGINLSFK | not soluble
14 | TKEHRAIARKTASESFVLLKNEGVLPLSKKGTIAVVGPLANTRSNMPGTWSVAAVLDNAPSLVEGLREVVGDRAKVVTAKGSNLIGDADYEKRATMFGRELHRDNRTDRELLDEALKVAAGADVIVAALGESSEMSGESSSRTNLEMPDVQRALLQELLKTGKSVVLVLFTGRPLVLTWEEEHVPAILNVWFGGSEAAYAISDVLFGDVNPSGKLTATFPQNVGQIPLFYNHKNTGRPLQEGRWFEKFRSNYLDVSNEPLYPFGYGL | not soluble
15 | TKKNELNKAHVTIALTNPKTPTNVGAVIRAAGCYQADQIIYNGNRYAQAAKYHKKTLQTDTFNMQDKIPLLQVESFIGIKDSLESIPSSAKIICVDLVEGATPLPHFIHPPEAVYIFGPEDSSVKQEVIDIADDVVYVPTVGCMNLAATVNVLLYDRLAKSL | not soluble
16 | TLKGKTALVTGSTSGIGLGIAQVLARAGANIVLNGFGDPAPALAEIARHGVKAVHHPADLSDVAQIEALFALAEREFGGVDILVNNAGIQHVAPVEQFPLESWDKIIALNLSAVFHGTRLALPGMRARNWGRIINIASVHGLVGSTGKAAYVAAKHGVVGLTKVVGLETATSNVTCNAICPGWVLTPLVQKQIDDRAANGGDPLQAQHDLLAEKQPSLAFVTPEHLGELVLFLCSEAGSQVRGAAWNVDGGWLAQ | soluble
17 | TQEKRSYMEKLSDENGIISALAFDQRGALKRLMAQYQTQEPTIAQMEELKVLVAEELTPYASSMLLDPEYGLPAAKHLDKNAGLLLAYEKTGYDTTSTKRLPDCLVEWSAKRLKKQGADAVKFLLYYDVDGDEEVNQQKQAYIERIGSECKAEDIPFFLEILAYDETITDAASVEYAKVKPHKVLDAMKVFSDERFGIDVLKVEVPVNMKYVEGFGDGPIVHTQDQAANFFKQQDQATPLPYIYLSAGVSAKLFQDTLVFAKESGANFNGVLCGRATWAGSVKDYIEKGEAAARQWLRTEGFKNIDELNKVLKATATSWKE | not soluble
18 | TQLQLKDSMEKFGALYHSSSLGMLIVIEREIVDANHRALELLSYKKSDLLEQSLDTLCPTTADECRVDAMYRELQHGRNQFEAQMLDSHGETIDCLIEATLIQHNGHTALMLLLQDLS | not soluble
19 | TQVYKAKFGTPNRGWVIIVHGLGEHSGRYSKLVSMLVNEGYAVYTFDWPGHGKSPGKRGHTSVEEAMEIIDFIIEEINDKPFLFGHSLGGLTVIRYAETRPEKIRGVIASSPALAKSPKTPSFMVALAKILGVLLPSLTLSNGIDPNLLSRNPDAVKRYIEDPLVHDRISAKLGRSIFKNMDLAHREAHKIKVPVLLLVGTGDVITPPEGARKLYGEIKVEDKEIVEFEGAYHEIFEDPEWGEEFHKKIVEWIKKH | not soluble
